The values that follow come from US20020165156A1 (Biogen, published 2002).

The experiment has as its target T1, soluble flag-hBAFF (amino acids L83-L285) (human, UniProt Q9Y275 83-285).
T1 construct: range 83-285; also called FLAG-tagged human BAFF; not shown: FLAG tag
Put plainly: plate assay, 0.5 ug/ml FLAG-hBAFF on pJST535-transfected 293EBNA cells, anti-FLAG M2 and alkaline phosphatase / fast red. The protocol: Full-length human BAFF-R was generated from BJAB polyA+RNA using the SuperscriptII preamplification kit (Life Technologies) to generate the cDNA template and amplified by Pfu1 using primers complementary to the 5′ and 3′ coding sequences of BAFF-R. The PCR product was cloned into CH269, a derivative of pCEP4 (Invitrogen). The resultant clone was termed pJST535. Human embryonic kidney cells containing the EBNA-1 gene (293EBNA) were seeded into 6 well plates coated with fibronectin and transfected by lipofectamine (Life Technologies) with either pJST535 at various dilutions or CH269 as a background control. At 48 hrs post transfection, transfected cells were assayed for their ability to bind soluble flag-hBAFF(amino acids L83-L285) as follows. All incubations were at room temperature. Conditioned media was aspirated from the wells and the cells washed with BHA buffer (20 mM HEPES pH7.0, 0.5mg/ml BSA, 0.1% NaN3) and incubated with 0.5 ug/ml FLAG-hBAFF diluted in PBS containing 1 mM MgCl2, 1 mM CaCl2 and 0.1% NaN3. After an 1 hr. incubation, the BAFF solution was removed and the cells were washed with BHA. The cells were next incubated for 30 min. in a PBS solution containing 1 ug/ml of the anti-FLAG monoclonal antibody, M2 (Sigma). This solution was aspirated and the cells were washed with BHA. […]

T1 sequence (Q9Y275 83-285 limits assumed): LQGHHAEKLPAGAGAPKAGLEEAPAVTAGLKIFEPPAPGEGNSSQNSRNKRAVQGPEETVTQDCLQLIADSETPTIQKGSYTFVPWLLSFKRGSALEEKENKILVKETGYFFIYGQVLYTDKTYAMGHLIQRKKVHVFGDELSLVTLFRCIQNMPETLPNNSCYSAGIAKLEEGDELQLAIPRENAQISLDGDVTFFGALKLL

B1: full-length human BAFF-R (BCMA) expressed on 293EBNA cells transfected with pJST535 (receptor)
chain: MLQMAGQCSQNEYFDSLLHACIPCQLRCSSNTPPLTCQRYCNASVTNSVKGTNAILWTCLGLSLIISLAVFVLMFLLRKISSEPLKDEFKNTGSGLLGMANIDLEKSRTGDEIILPRGLEYTVEECTCEDCIKSKPKVDSDHCFPLPAMEEGATILVTTKTNDYCKSLPAALSATEIEKSISAR
Take B1: the binding result is “binds”.
